From patent US20230000998A1 (OSSIANIX, published 2023)
Each block holds one binder with its values, some of them ahead of it.

Columns and labels:
[1] = target: T1, human TfR-1 (transferrin receptor 1), purified recombinant (human, UniProt P02786 89-760, limits assumed); assay: kinetic ELISA on coated recombinant TfR-1, anti-human Fc-HRP detection, Vmax at 370 nm
T1 construct: Coated on ELISA plates at 1 ug/ml; also called hTfR1
Description: (§1) The TrkB fusion constructs were assessed for binding to recombinant human, mouse, rat and cynomolgus TfR1. […] When these conjugates were compared to a control VNAR-Fc (open circles), no loss of affinity for TrkB(HC2N) (squares) was observed and only minimal loss for TrkB(HV2N) (triangles).
(§2) TfR-1-binding ELISA. Nunc MaxiSorp plates (Thermo Fisher) were coated with 100 μl of 1 μg/ml of purified, recombinant mouse, human, rat or cynomolgus TfR-1, or with human serum albumin (HAS; Sigma) and incubated at 4° C. overnight. Plates were incubated with blocking buffer (2.5% non-fat dry milk in PBS with 0.1% Tween20; “PBST”) for 1 hat room temperature. Antibody or conjugate solutions were incubated in PBST for 30 min. The blocked solutions (100 μl) were transferred to the blocked plates and incubated for 1 h before washing with PBST. After washing, the plates were incubated for 30 min with a goat anti-human Fc-peroxidase antibody diluted 1:5000 (Sigma) in PBST. The plates were washed and developed with SureBlue™ TMB substrate (VWR). The development of the reaction was measured at 370 nm in real time providing data for Vmax analysis. EC50 values were calculated using 4-parametric non-linear regression (Prism).

[2] = target: T2, mouse TfR-1 (transferrin receptor 1), purified recombinant (mouse, UniProt Q62351 89-763, limits assumed); assay: as above
T2 construct: also called mTfR1
Description: as §1, §2

[3] = target: T3, cynomolgus TfR-1 (transferrin receptor 1), purified recombinant (cynomolgus, UniProt H9EXL1 89-760 (rhesus entry)); assay: as above
T3 construct: also called cTfR1
Description: as §1, §2

[4] = target: T4, rat TfR-1 (transferrin receptor 1), purified recombinant (rat, UniProt Q99376 89-761, limits assumed); assay: as above
T4 construct: also called rTfR1
Description: as §1, §2

human serum albumin = target: T5, human serum albumin (human, UniProt P02768 25-609); assay: kinetic ELISA on coated HSA (negative control); ND: not detected
T5 construct: also called HSA; HAS
Description: as §1, §2

[5] = target: human TrkB receptor (overexpressed on TrkB-NFAT-bla CHO-K1 reporter cells) (human, UniProt Q16620 32-822); assay: cell-based or functional assay
[6] = target: T1, human TfR-1 (transferrin receptor 1), …; assay: kinetic ELISA on coated recombinant TfR-1 (Vmax at 370 nm); ND: not detected
Description: as §1, §2

[7] = target: T2, mouse TfR-1 (transferrin receptor 1), …; assay: as above
Description: as §1, §2

[8] = target: T3, cynomolgus TfR-1 (transferrin receptor …); assay: as above
Description: as §1, §2

[9] = target: T4, rat TfR-1 (transferrin receptor 1), …; assay: as above
Description: as §1, §2

T2 sequence (Q62351 89-763 limits assumed): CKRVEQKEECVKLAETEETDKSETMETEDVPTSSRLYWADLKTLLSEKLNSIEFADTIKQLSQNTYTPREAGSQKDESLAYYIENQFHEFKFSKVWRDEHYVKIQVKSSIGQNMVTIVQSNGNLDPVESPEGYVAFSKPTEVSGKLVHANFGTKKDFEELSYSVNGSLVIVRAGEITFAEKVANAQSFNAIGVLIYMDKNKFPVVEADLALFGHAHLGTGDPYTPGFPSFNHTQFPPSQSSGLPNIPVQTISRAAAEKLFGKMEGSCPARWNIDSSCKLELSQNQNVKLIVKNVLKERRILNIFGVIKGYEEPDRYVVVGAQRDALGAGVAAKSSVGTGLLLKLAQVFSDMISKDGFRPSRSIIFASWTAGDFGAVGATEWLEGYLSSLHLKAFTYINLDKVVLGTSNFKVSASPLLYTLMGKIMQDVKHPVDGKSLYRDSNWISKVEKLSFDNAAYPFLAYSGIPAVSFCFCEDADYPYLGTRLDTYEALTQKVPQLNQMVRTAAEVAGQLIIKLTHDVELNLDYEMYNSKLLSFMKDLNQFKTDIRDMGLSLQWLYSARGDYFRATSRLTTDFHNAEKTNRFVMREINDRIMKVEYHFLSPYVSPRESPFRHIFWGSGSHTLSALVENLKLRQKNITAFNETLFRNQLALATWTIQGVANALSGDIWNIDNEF
T3 sequence (chain, as listed by the source): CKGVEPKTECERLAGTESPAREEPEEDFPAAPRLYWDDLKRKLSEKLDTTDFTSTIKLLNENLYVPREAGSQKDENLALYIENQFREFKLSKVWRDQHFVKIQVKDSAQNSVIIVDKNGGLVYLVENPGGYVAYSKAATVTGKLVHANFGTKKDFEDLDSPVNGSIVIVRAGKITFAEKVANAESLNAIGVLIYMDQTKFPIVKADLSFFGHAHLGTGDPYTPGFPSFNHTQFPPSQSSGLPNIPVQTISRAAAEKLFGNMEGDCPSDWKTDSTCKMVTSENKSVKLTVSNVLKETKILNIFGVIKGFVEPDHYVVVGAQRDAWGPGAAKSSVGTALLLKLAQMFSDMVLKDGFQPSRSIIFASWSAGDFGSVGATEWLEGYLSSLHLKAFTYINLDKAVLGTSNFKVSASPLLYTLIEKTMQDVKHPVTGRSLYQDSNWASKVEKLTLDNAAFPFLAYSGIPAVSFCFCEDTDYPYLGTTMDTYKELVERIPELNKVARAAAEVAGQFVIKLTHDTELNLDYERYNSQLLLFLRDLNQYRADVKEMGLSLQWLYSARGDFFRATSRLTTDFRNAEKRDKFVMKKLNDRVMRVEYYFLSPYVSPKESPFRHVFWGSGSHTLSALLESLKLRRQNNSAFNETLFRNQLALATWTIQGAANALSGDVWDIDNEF
T5 sequence (P02768 25-609 limits assumed): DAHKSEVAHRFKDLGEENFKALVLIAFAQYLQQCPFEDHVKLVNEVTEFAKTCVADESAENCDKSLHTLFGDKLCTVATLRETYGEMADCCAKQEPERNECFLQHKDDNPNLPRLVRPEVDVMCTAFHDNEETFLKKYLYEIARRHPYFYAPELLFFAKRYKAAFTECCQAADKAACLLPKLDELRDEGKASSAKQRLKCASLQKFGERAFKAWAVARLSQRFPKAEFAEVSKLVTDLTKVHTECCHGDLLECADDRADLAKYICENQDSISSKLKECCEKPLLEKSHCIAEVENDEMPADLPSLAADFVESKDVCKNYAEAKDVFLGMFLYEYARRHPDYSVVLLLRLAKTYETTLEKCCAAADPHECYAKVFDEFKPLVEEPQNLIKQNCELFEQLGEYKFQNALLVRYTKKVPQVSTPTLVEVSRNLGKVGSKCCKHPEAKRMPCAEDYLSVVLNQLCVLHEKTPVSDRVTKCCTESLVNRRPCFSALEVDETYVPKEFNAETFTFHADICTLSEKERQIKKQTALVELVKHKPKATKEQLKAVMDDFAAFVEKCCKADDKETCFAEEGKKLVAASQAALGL
human TrkB receptor (overexpressed on TrkB-NFAT-bla CHO-K1 reporter cells), sequence (Q16620 32-822): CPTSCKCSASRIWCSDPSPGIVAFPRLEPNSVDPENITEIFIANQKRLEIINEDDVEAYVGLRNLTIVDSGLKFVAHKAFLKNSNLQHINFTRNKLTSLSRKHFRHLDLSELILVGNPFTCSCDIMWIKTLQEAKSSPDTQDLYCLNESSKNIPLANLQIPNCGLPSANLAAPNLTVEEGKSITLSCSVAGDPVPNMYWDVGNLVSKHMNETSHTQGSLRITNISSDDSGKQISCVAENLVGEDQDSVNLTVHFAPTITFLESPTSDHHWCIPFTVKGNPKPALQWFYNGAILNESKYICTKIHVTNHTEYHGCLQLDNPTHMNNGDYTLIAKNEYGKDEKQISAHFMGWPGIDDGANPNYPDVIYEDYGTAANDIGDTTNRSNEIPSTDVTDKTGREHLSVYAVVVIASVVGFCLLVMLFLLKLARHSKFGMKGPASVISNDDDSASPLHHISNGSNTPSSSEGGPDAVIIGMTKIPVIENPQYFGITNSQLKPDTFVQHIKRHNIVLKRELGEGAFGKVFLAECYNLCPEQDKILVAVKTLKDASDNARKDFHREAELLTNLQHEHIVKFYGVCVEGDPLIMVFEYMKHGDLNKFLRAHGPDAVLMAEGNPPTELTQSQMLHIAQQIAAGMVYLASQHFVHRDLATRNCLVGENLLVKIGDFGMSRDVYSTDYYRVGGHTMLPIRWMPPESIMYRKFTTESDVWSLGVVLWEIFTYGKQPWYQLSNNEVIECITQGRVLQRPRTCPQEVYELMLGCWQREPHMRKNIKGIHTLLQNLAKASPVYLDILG
T1 sequence (P02786 89-760 limits assumed): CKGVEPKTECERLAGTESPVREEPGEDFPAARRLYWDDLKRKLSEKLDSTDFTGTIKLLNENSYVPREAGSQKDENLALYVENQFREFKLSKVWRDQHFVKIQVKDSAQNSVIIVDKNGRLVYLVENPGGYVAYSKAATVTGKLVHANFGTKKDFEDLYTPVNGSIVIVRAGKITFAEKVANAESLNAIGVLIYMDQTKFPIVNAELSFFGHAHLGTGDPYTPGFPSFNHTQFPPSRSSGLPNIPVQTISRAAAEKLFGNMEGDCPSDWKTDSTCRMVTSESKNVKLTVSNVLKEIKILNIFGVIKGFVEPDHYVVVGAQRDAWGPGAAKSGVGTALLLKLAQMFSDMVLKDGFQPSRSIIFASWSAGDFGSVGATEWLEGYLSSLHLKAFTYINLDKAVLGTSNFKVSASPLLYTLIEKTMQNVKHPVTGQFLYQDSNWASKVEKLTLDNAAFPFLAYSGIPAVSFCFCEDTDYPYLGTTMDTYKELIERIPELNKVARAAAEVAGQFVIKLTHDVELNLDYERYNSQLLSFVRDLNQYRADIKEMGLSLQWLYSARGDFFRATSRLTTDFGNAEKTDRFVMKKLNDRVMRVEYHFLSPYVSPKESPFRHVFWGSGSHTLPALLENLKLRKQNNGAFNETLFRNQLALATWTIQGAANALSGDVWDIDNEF
T4 sequence (Q99376 89-761 limits assumed): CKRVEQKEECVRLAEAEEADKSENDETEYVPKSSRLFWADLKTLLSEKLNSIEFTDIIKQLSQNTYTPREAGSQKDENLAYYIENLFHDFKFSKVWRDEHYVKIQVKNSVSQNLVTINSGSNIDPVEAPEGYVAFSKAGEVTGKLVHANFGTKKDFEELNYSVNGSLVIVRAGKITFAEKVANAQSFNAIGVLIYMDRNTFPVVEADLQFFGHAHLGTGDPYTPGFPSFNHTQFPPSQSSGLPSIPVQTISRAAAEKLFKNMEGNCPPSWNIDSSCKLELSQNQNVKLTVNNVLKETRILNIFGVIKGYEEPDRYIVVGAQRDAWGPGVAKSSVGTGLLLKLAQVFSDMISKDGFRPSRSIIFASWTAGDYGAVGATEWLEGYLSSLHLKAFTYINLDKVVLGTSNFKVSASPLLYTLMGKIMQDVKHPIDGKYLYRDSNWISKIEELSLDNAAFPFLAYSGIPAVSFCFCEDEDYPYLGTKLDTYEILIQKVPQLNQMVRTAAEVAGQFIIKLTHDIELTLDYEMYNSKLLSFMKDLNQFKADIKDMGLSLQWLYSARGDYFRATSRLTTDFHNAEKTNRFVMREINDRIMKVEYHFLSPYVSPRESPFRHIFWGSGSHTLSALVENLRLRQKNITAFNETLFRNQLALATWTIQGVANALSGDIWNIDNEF

EC50 [1]: 0.78 nM
EC50 [2]: 0.54 nM
EC50 [3]: 1 nM
EC50 [4]: 1.37 nM
binding result (human serum albumin): no binding
B1: VNAR-Fc control conjugate (TXB4 fused to the N-terminal end of the Fc domain) (Fc fusion)
chain: ARVDQTPQTITKETGESLTINCVLRDSNCALSSTYWYRKKSGSTNEENISKGGRYVETVNSGSKSFSLRINDLTVEDSGTYRCNVVQYPQYPNYFWCDVYGDGTAVTVNA
notes: also called control VNAR-Fc fusion; not shown: Fc domain

maximal reporter response as percentage of the BDNF response (TrkB-NFAT-bla CHO-K1 cells) [5]: ~50%
binding result [6]: no binding
binding result [7]: no binding
binding result [8]: no binding
binding result [9]: no binding
binding result (human serum albumin): no binding
B2: unconjugated TrkB-AAb (mouse-human chimeric 29D7 TrkB agonist antibody, human IgG1 LALA / human kappa) (antibody, V domains shown)
VH: EVQLQQSGPELVKPGASMKISCKTSGYSFTAYFMNWVKQSHGKSLEWIGRINPNNGDTFYTQKFKGKATLTVDKSSNTAHMELLSLTSEDSAIYYCGRRDYFGAMDYWGQGTSVTVSS
VL: AIVLIQSPATLSVTPGDSVSLSCRASQTISNNLHWYQQKSHESPRLLIKSASLAISGIPSRFSGSGSGTDFTLSISSVETEDFGMYFCQQSNSWPNTFGGGTKLEIKR
notes: VH and VL of mouse 29D7 fused to human IgG1 and human kappa constant regions; Copies of 2 are inferred from the IgG1 format; also called unconjugated TrkB antibody; TrkB 29D7

EC50 [1]: 0.74 nM
EC50 [2]: 0.63 nM
EC50 [3]: 0.79 nM
EC50 [4]: 4.03 nM
agonist activity relative to TrkB(HV2N) (TrkB-NFAT-bla CHO-K1 cells) [5]: ~7 fold less than TrkB(HV2N)
maximal reporter response as percentage of the BDNF response (TrkB-NFAT-bla CHO-K1 cells) [5]: ~50%
binding result (human serum albumin): no binding
B3: TrkB(HC2N) conjugate (TXB4 VNAR fused to the N-terminus of the TrkB antibody heavy chain via a 3xG4S linker) (bispecific antibody, human IgG1, kappa, L234A L235A)
light: AIVLIQSPATLSVTPGDSVSLSCRASQTISNNLHWYQQKSHESPRLLIKSASLAISGIPSRFSGSGSGTDFTLSISSVETEDFGMYFCQQSNSWPNTFGGGTKLEIKRTVAAPSVFIFPPSDEQLKSGTASVVCLLNNFYPREAKVQWKVDNALQSGNSQESVTEQDSKDSTYSLSSTLTLSKADYEKHKVYACEVTHQGLSSPVTKSFNRGEC
heavy: not shown
notes: Copies of 2 are inferred from the IgG1 format; also called TXB4-TrkB-AAb conjugate

EC50 [1]: 5.3 nM
EC50 [2]: 5.07 nM
EC50 [3]: 2.04 nM
EC50 [4]: 61 nM
maximal reporter response as percentage of the BDNF response (TrkB-NFAT-bla CHO-K1 cells) [5]: ~50%
binding result (human serum albumin): no binding
B4: TrkB(HV2N) conjugate (TXB4 VNAR inserted between the CH1 and Fc domains of the TrkB antibody heavy chain) (bispecific antibody, IgG1)
light: B3 light
heavy: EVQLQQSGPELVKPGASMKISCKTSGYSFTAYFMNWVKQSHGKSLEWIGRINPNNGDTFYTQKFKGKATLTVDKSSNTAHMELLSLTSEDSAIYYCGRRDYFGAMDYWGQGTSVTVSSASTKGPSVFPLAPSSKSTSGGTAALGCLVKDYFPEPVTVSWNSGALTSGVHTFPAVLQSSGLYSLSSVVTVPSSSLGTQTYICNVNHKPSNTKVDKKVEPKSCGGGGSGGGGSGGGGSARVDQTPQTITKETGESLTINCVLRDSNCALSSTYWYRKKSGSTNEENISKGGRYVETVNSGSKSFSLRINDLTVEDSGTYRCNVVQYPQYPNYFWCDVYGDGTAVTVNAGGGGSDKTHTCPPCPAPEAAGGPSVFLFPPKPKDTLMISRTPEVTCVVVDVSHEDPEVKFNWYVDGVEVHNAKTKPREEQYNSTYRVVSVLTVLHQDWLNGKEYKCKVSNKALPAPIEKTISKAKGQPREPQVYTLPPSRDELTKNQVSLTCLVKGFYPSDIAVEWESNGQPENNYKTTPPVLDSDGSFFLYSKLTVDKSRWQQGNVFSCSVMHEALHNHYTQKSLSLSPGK
notes: Copies of 2 are inferred from the IgG1 format; also called TrkB1-TXB4; TXB4-TrkB-AAb conjugate
